Results on one molecule are retold here after article PMC9775241, “One-Step Photochemical Immobilization of Aptamer on Graphene for Label-Free Detection of NT-proBNP”.

The target of data set [1] is cTnI (cardiac troponin I) (UniProt P19429 2-210). The experiment in a line: graphene field-effect transistor (GFET) aptasensor; cTnI 3.5 ng/mL; no significant response; PBS (137 mM NaCl, 2.7 mM KCl, 10 mM phosphate) used for immobilization and blank; sensing buffer dilution, pH and temperature not given in material; aptamer on. Conditions: protein: commercial.
cTnI (cardiac troponin I), sequence (P19429 2-210): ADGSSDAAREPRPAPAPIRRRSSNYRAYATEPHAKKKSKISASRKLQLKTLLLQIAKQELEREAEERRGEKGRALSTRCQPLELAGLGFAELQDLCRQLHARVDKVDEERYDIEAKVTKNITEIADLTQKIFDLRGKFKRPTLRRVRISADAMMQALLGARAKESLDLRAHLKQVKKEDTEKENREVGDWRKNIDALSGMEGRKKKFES
The next data set deals with NT-proBNP (UniProt P16860 27-102). The experiment in a line: graphene field-effect transistor (GFET) aptasensor; LOD 0.01 pg/mL, range 0.1-10^4 pg/mL; Langmuir KD calculated but value not in material; PBS (137 mM NaCl, 2.7 mM KCl, 10 mM phosphate) used for immobilization and blank; sensing buffer dilution, pH and temperature not given in material; aptamer on. Conditions: protein: commercial.
NT-proBNP, sequence (P16860 27-102): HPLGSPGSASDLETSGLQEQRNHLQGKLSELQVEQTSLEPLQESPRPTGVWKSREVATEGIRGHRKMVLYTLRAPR

B1: azide-modified NT-proBNP aptamer (N20a in Fig. S3 legend) (ssDNA)
DNA: GGCAGGAAGACAAACAGGTCGTAGTGGAAACTGTCCACCGTAGACCGGTTATCTAGTGGTCTGTGGTGCTGT
modifications: 5'-NH2; 3'-azide (N3), photochemically coupled to graphene
In the case of B1, the binding result in data set [1] was “no binding”; with NT-proBNP, “binds”.
